# Reference: the RNAGym collection of RNA variant scans (doi:10.7554/elife.90254)
# B1: LINE1-full (parent)
# chain: UACGUAGGUGGUUUUCCCCUGAUAGUGCUAAGGGGGCCUGGAAGUUUGGACUGGGCAGAGCUCAACACAGCGUGGCAAAGUGGCUGUGGCUAGACUGCCUCUCUGGAUUCCUCGUCACUCAGCAGGGCAUCUCUGAGAGAAAUGCC
# Variants of: B1
# Assay: self-cleavage, relative activity (ratio to wild type); higher = more cleavage; in vitro, sequencing; the parent is a self-cleaving ribozyme
row,Variant,self-cleavage
1,UACGUAGGUGGUUUUCCCCUGAUAGUGCUAAGGGGGCCUGGAAGUUUGGACUGGGCAGAGCCCAAUACAGCGUGGCAAAGUGGCUGUGGCUAGACUGCCUCUCUGGAUUCCUCGUCACUCAGCAGGGCAUCUCUGAGAGAAAUGCC,0.03
2,UACGUAGGUGGUUUUCCCCUGAUAGUGCUAAGGGGGCCUGGAAGUUUGGACUGGGCAGAGCCCAACACAGCGUGGCAAAGUGGCUGUGGCUUGACUGCCUCUCUGGAUUCCUCGUCACUCAGCAGGGCAUCUCUGAGAGAAAUGCC,0.04
3,UACGUAGGUGGUUUUCCCCUGAUAGUGCUAAGGGGGCCUGGAAGUUUGGACUGGGCAGAGCCCAACACAGCGUGGCAAAGUGGCUGUGGCUGGACUGCCUCUCUGGAUUCCUCGUCACUCAGCAGGGCAUCUCUGAGAGAAAUGCC,0.04
4,UACGUAGGUGGUUUUCCCCUGAUAGUGCUAAGGGGGCCUGGAAGUUUGGACUGGGCAGAGCACAACACAGCGUGGCAAAGUGGCUGUGGCUAGACUGCCUCUCUGGAUUCCUCGUCACUCAGCAGGGCACCUCUGAGAGAAAUGCC,0.05
5,UACGUAGGUGGUUUUCCCCUGAUAGUGCUAAGGGGGCCUGGAAGUUUGGACUGGGCAGAGCCAAACACAGCGUGGCAAAGUGGCUGUGGCUAGACUGCCUCUCUGGAUUCCUCGUCACUCAGCAGGGCAUCUCUGAGAGAAAUGCC,0.01
6,UACGUAGGUGGUUUUCCCCUGAUAGUGCUAAGGGGGCCUGGAAGUUUGGACUGGGCAGAGCCUAACACAGCGUGGCAAAGUGGCUGUGGCUAGACUGCCUCUCUGGAUUCCUCGUCACUCAGCAGGGCAUCUCUGAGAGAAAUGCC,0.07
7,UACGUAGGUGGUUUUCCCCUGAUAGUGCUAAGGGGGCCUGGAAGUUUGGACUGGGCAGAGCCCAGCACAGCGUGGCAAAGUGGCUGUGGCUAGACUGCCUCUCUGGAUUCCUCGUCACUCAGCAGGGCAUCUCUGAGAGAAAUGCC,0.1
8,UACGUAGGUGGUUUUCCCCUGAUAGUGCUAAGGGGGCCUGGAAGUUUGGACUGGGCAGAGCCCAACACAGCGUGGCCAAGUGGCUGUGGCUAGACUGCCUCUCUGGAUUCCUCGUCACUCAGCAGGGCAUCUCUGAGAGAAAUGCC,0.05
9,UACGUAGGUGGUUUUCCCCUGAUAGUGCUAAGGGGGCCUGGAAGUUUGGACUGGGCAGAGCCCAACACAGCGUGGCAAAGUGGCUGUGGCUAGACUGCCUCUCUGGAUUCCUCGUCGCUCAGCAGGGCAUCUCUGAGAGAAAUGCC,0.1
10,UACGUAGGUGGUUUUCCCCUGAUAGUGCUAAGGGGGCCUGGAAGUUUGGACUGGGCAGAGCCCAACACAGCGUGGCAAAGUGGCUGUGGCUAGACUGCCUCUCUGGAUUCCUCGUCCCUCAGCAGGGCAUCUCUGAGAGAAAUGCC,0.03
11,UACGUAGGUGGUUUUCCCCUGAUAGUGCUAAGGGGGCCUGGAAGUUUGGACUGGGCAGAGCCCAACACAGCGUGGCAAAGUGGCUGUGGCUAGACUGCCUCUCUGGAUUCCUCGUCUCUCAGCAGGGCAUCUCUGAGAGAAAUGCC,0.03
12,UACGUAGGUGGUUUUCCCCUGAUAGUGCUAAGGGGGCCUGGAAGUUUGGACUGGGCAGAGCCCAACACAGCGUGGCAAAGUGGCUGUGGCUAGACUGCCUUUCUGGAUUCCUCGUCACUCAGCAGGGCAUCUCUGAGAGAAAUGCC,0.07
13,UACGUAGGUGGUUUUCCCCUGAUAGUGCUAAGGGGGCCUGGAAGUUUGGACUGGGCAGAGCCCAACACAGCGUGGCAAAGUGGCUGUGGCUAGACUGCCUAUCUGGAUUCCUCGUCACUCAGCAGGGCAUCUCUGAGAGAAAUGCC,0.04
14,UACGUAGGUGGUUUUCCCCUGAUAGUGCUAAGGGGGCCUGGAAGUUUGGACUGGGCAGAGCCCAACACAGCGUGGCAAAGUGGCUGUGGCUAGACUGCCUCUCUGGAUUCCUCGUCACUCAGCGGGGCAUCUCUGAGAGAAAUGCC,0.08
15,UACGUAGGUGGUUUUCCCCUGAUAGUGCUAAGGGGGCCUGGAAGUUUGGACUGGGCAGAGCCCAACACAGCGUGGCAUAGUGGCUGUGGCUAGACUGCCUCUCUGGAUUCCUCGUCACUCAGCAGGGCAUCUCUGAGAGAAAUGCC,0.04
16,UACGUAGGUGGUUUUCCCCUGAUAGUGCUAAGGGGGCCUGGAAGUUUGGACUGGGCAGAGCCCAACACAGCGUGGCACAGUGGCUGUGGCUAGACUGCCUCUCUGGAUUCCUCGUCACUCAGCAGGGCAUCUCUGAGAGAAAUGCC,0
17,UACGUAGGUGGUUUUCCCCUGAUAGUGCUAAGGGGGCCUGGAAGUUUGGACUGGGCAGAGCCCAACACAGCGUGGCAGAGUGGCUGUGGCUAGACUGCCUCUCUGGAUUCCUCGUCACUCAGCAGGGCAUCUCUGAGAGAAAUGCC,0.05
18,UACGUAGGUGGUUUUCCCCUGAUAGUGCUAAGGGGGCCUGGAAGUUUGGACUGGGCAGAGCCCAACACAGCGUGGCAAAGUGGCUGUGGCUAGACUGCCUCUCUGGAUUCCUCGUCACUCAGCAGGGCAUCUCUGAGAGAAAUGCC,0.05
19,UACGUAGGUGGUUUUCCCCUGAUAGUGCUAAGGGGGCCUGGAAGUUUGGACUGGGCAGAGCACAACACAGCGUGGCAAAGUGGCUGUGGCUAGACUGCCUCUCUGGAUUCCUCGUCACUCAGCAGGGCAUCUCUGAGAGAAAAGCC,0.04
20,UACGUAGGUGGUUUUCCCCUGAUAGUGCUAAGGGGGCCUGGAAGUUUGGACUGGGCAGAGCCCAACACAGCGUGGCAAAGUGGCUGUGGCUAGACUGCCUCUCUGGAUUCCUCGUCACUCAGCAGGGCAUCUCUGAGAGGAAUGCC,0.04

row,Variant,self-cleavage
1,UACGUAGGUGGUUUUCCCCUGAUAGUGCUAAGGGGGCCUGGAAGUUUGGACUGGGCAGAGCCCAACACAGCGUGGCAAAGUGGCUGUGGCUAGUCUGCCUCUCUGGAUUCCUCGUCACUCAGCAGGGCAUCUCUGAGAGAAAUGCC,0.08
2,UACGUAGGUGGUUUUCCCCUGAUAGUGCUAAGGGGGCCUGGAAGUUUGGACUGGGCAGAGCCCAACACAGCGUGGCAAAGUGGCUGUGGCUAGACUGCCUCUCUGGAUUCCUCGUCACUCAGCAGGGCCUCUCUGAGAGAAAUGCC,0.19
3,UACGUAGGUGGUUUUCCCCUGAUAGUGCUAAGGGGGCCUGGAAGUUUGGACUGGGCAGAGCCCAACGCAGCGUGGCAAAGUGGCUGUGGCUAGACUGCCUCUCUGGAUUCCUCGUCACUCAGCAGGGCAUCUCUGAGAGAAAUGCC,0.09
4,UACGUAGGUGGUUUUCCCCUGAUAGUGCUAAGGGGGCCUGGAAGUUUGGACUGGGCAGAGCCCAACUCAGCGUGGCAAAGUGGCUGUGGCUAGACUGCCUCUCUGGAUUCCUCGUCACUCAGCAGGGCAUCUCUGAGAGAAAUGCC,0.05
5,UACGUAGGUGGUUUUCCCCUGAUAGUGCUAAGGGGGCCUGGAAGUUUGGACUGGGCAGAGCCCAACACGGCGUGGCAAAGUGGCUGUGGCUAGACUGCCUCUCUGGAUUCCUCGUCACUCAGCAGGGCAUCUCUGAGAGAAAUGCC,0.06
6,UACGUAGGUGGUUUUCCCCUGAUAGUGCUAAGGGGGCCUGGAAGUUUGGACUGGGCAGAGCACAACACAGCGUGGCAAAGUGGCUGUGGCUAGACUGCCUCUCUGGAUUCCUCGUCACUCAGCAGGGCAUCUCCGAGAGAAAUGCC,0.05
7,UACGUAGGUGGUUUUCCCCUGAUAGUGCUAAGGGGGCCUGGAAGUUUGGACUGGGCAGAGCACAACACAGCGUGGCAAAGUGGCUGUGGCUAGACUGCCUCUCUGGAUUCCUCGUCACUCAGCAGGGCAUCUCGGAGAGAAAUGCC,0.1
8,UACGUAGGUGGUUUUCCCCUGAUAGUGCUAAGGGGGCCUGGAAGUUUGGACUGGGCAGAGCACAACACAGCGUGGCAAAGUGGCUGUGGCUAGACUGCCUCUCUGGAUUCCUCGUCACUCAGCAGGGCAUCCCUGAGAGAAAUGCC,0.06
9,UACGUAGGUGGUUUUCCCCUGAUAGUGCUAAGGGGGCCUGGAAGUUUGGACUGGGCAGAGCCCAACACAGCGUGGCAAAGUGGCUGUGGCUAGACUGCCUCUCUGGAUUCCUCGUCACUCAGCAGGGCAUCUCUGAGGGAAAUGCC,0.06
10,UACGUAGGUGGUUUUCCCCUGAUAGUGCUAAGGGGGCCUGGAAGUUUGGACUGGGCAGAGCCCAACACAGCGUGGCAAAGUGGCUGUGGCUAGACUGCCUCUUUGGAUUCCUCGUCACUCAGCAGGGCAUCUCUGAGAGAAAUGCC,0.03
11,UACGUAGGUGGUUUUCCCCUGAUAGUGCUAAGGGGGCCUGGAAGUUUGGACUGGGCAGAGCCCAACACAGCGUGGCAAAGUGGCUGUGGCUAGACUGCCUCUCUGGAUUCCUCGUCACUCAGCAGGGCAUCUCUGAGAGAGAUGCC,0.03
12,UACGUAGGUGGUUUUCCCCUGAUAGUGCUAAGGGGGCCUGGAAGUUUGGACUGGGCAGAGCCCAACACAGCGUGGCAAAGUGGCUGUGGCUAGACUGCAUCUCUGGAUUCCUCGUCACUCAGCAGGGCAUCUCUGAGAGAAAUGCC,0.03
13,UACGUAGGUGGUUUUCCCCUGAUAGUGCUAAGGGGGCCUGGAAGUUUGGACUGGGCAGAGCCCAACACAGCGUGGCAAUGUGGCUGUGGCUAGACUGCCUCUCUGGAUUCCUCGUCACUCAGCAGGGCAUCUCUGAGAGAAAUGCC,0.03
14,UACGUAGGUGGUUUUCCCCUGAUAGUGCUAAGGGGGCCUGGAAGUUUGGACUGGGCAGAGCCCAACACAGCGUGGCAAGGUGGCUGUGGCUAGACUGCCUCUCUGGAUUCCUCGUCACUCAGCAGGGCAUCUCUGAGAGAAAUGCC,0.06
15,UACGUAGGUGGUUUUCCCCUGAUAGUGCUAAGGGGGCCUGGAAGUUUGGACUGGGCAGAGCCCGACACAGCGUGGCAAAGUGGCUGUGGCUAGACUGCCUCUCUGGAUUCCUCGUCACUCAGCAGGGCAUCUCUGAGAGAAAUGCC,0.08
16,UACGUAGGUGGUUUUCCCCUGAUAGUGCUAAGGGGGCCUGGAAGUUUGGACUGGGCAGAGCCCAACACAGCGUGGCAAAGUGGCUGUGGCUAGACUGCCUCUCUGGGUUCCUCGUCACUCAGCAGGGCAUCUCUGAGAGAAAUGCC,0.06
17,UACGUAGGUGGUUUUCCCCUGAUAGUGCUAAGGGGGCCUGGAAGUUUGGACUGGGCAGAGCCCAACACAGUGUGGCAAAGUGGCUGUGGCUAGACUGCCUCUCUGGAUUCCUCGUCACUCAGCAGGGCAUCUCUGAGAGAAAUGCC,0.05
18,UACGUAGGUGGUUUUCCCCUGAUAGUGCUAAGGGGGCCUGGAAGUUUGGACUGGGCAGAGCCCAACACAGCGUGGCAAAGUGGCUGUGGCUAGACUGCCUCUCUGGAUUCCUCGUCACUCCGCAGGGCAUCUCUGAGAGAAAUGCC,0.15
19,UACGUAGGUGGUUUUCCCCUGAUAGUGCUAAGGGGGCCUGGAAGUUUGGACUGGGCAGAGCCCAACACAGCGUGGCAAAGUGGCUGUGGCUAGACUGCCUCUCUGGAUUCCUCGUCACUCAGCAGGGCAUCUCUGGGAGAAAUGCC,0.06
